Results: article PMC12741062 (Frontiers in Immunology, 2025)

target: T1, BVDV NS4B-His recombinant protein (Bovine viral diarrhea virus 1, GenBank …, UniProt A0A068L3P0); assay: ELISA; iELISA; 96-well plates coated with NS4B protein (400 ng/well); incubated with TAT-Nb91 or Nb91; anti-camel serum (1:2,000) and HRP-conjugated secondary antibody; OD 450 nm; conditions: both partners purified
T1 construct: also called recombinant NS4B protein

Binder | binding result
TAT-Nb91 recombinant protein (VHH, TAT cell-penetrating peptide from HIV; Linker; VHH of Nb91, as the VHH of m11; About 19 kDa; The primers carry HindIII and XhoI sites; also called TAT-Nb91-His; not shown: His6, C-terminal, kept) VHH: LQESGGGSVQAGGSLKLSCAASGSTFNSCGMGWYRQVPGKERELVSTISDSDTTTYADAVKGRFSISQDKTKNTLYLQMNSLKTEDTARYYCAARSIFAERVCSIHFDSWGQGTQVTVSS | binds

target: T2, BVDV NS4B-His recombinant protein (Bovine viral diarrhea virus 1, GenBank …); assay: ELISA; iELISA; NS4B-His or the control BVDV-NS5A-His as coating antigen; the nine nanobodies added; anti-E-tag detection; conditions: one partner purified
T2 construct: also called recombinant NS4B protein

Binder | binding result
Nb85 (VHH) VHH: LQESGGGSVQAGGSLRLSCVSSEYSGTIFAMGWFRQAPGKEREGVAVVDSAITKHYADSVKGRFTISRDNAKNRLDLQMDSLKPEDTGMYYCARSRGYLAGASATLRPTNYDDWGQGTQVTVSS | binds
Nb67 (VHH) VHH: LQESGGGLVQAGGSLRLSCTASGLNVDNYEMGWFRQAPGKEREGIAQISCSGAMTYYADSVKGRFTISRDNAKKTLYLQMNSLTPEDTAMYYCAAQTRVCGLWTSRGPEMESDFDAWGQGTQVTVSS | binds
Nb70 (VHH) VHH: LQESGGGSVQAGGSLRLSCTASTFTYISLYMGWFRQAPGKEREGVAGIYAGGGDTYYADSVKGRFTISQDDAKRTVYLQMNSLKPEDTAMYYCAADRGPSRWDFRSWGQGTQVTVSS | binds
Nb27 (VHH) VHH: LQESGGGSVQAGGSLKLSCAASGPIFRRCGMGWYRQAPGKEREVVSGINDAGTASYADSVKGRFTISQDNAKNMLYLQMNSLKTEDTAVYYCAGRKYYDVGNYCSVDLYWGQGTQVTVSS | binds
Nb72 (VHH) VHH: LQKAGGVSEQAGASLRLSCVLSARIYGRCCLLWFRQDPGNREGISSINTDGKTSYTDSGKDRFTVSQYTDYNILQLQMNSLKPDDTAVYYCGATERVGDICTEYKYRGQGTQVTVSS | binds
